The values that follow come from patent publication US20240117030A1 (Pfizer, published 2024).

Holding throughout (experiment): cell-based or functional assay
One experiment addresses T1, human IL-4 (human, UniProt P05112 25-153).
T1 sequence (looked up): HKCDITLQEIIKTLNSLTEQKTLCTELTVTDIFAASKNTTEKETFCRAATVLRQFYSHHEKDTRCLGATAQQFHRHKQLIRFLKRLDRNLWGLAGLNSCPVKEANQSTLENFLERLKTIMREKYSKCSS

The target of a further experiment is human IL-13 (human, UniProt P35225 35-146).
Another experiment addresses T2, recombinant human IL-4 (human, UniProt P05112 25-153).
T2 sequence (looked up): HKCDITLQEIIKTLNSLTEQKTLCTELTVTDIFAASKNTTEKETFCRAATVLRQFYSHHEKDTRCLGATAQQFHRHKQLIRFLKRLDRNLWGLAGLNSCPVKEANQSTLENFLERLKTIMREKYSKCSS

The target of a further experiment is recombinant human IL-13 (human, UniProt P35225 35-146).
The next experiment deals with T3, recombinant human IL-33 (human, UniProt O95760 112-270, limits assumed).
T3 sequence (looked up): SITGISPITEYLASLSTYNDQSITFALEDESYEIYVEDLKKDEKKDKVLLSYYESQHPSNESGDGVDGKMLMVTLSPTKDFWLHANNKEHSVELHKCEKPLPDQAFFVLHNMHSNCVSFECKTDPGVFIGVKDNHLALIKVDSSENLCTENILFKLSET

human IL-13, sequence (P35225 35-146 limits assumed): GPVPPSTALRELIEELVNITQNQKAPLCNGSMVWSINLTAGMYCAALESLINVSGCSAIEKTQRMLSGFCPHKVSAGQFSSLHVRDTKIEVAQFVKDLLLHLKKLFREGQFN
recombinant human IL-13, sequence (P35225 35-146 limits assumed): as above

B1: IL413TSLP-0248 (other)
heavy: EVQLVESGGGLVQPGGSLRLSCAASGFTFSSYAMSWVRQAPGKGLEWVASISSGDTTYYPDSVKGRFTISRDNAKNSLYLQMNSLRAEDTAVYYCARNEGYYFGLTLWGQGTLVTVSSASTKGPSVFPKAPSSKSTSGGTAALGCLVKDYFPEPVTVSWNSGALTSGVHTFPAVLQSSGLYSLSSSVTVPSSSLGTQTYICNVNHKPSNTKVDKKVEPKSCDKTHTCPPCPAPEAAGAPSVFLFPPKPKDTLMISRTPEVTCVVVDVSHEDPEVKFNWYVDGVEVHNAKTKPREEQYNSTYRVVSVLTVLHQDWLNGKEYKCKVSNKALPAPIEKTISKAKGQPREPQVCTLPPSREEMTKNQVSLWCLVKGFYPSDIAVEWESNGQPENNYKTTPPVLDSDGSFFLYSKLTVDKSRWQQGNVFSCSVMHEALHNHYTQKSLSLSPGK
chain 1: SYVLTQPPSVSVAPGQTARITCGGNNLGSKSVHWYQQKPGQAPVLVVYDDSDRPSWIPERFSGSNSGNTATLTISRGEAGDEADYYCQVWDSSSDHVVFGGGTKLTVLGQPKAAPSVTLFPPSSEELQANKATLVCLISDFYPGAVTVAWKADSSPVKAGVETTTPSKQSNNKYAASSYLSLTPEQWKSHRSYSCQVTHEGSTVEKTVAPTECSGGGGSEVTLRESGPALVKPTQTLTLTCTFSGFSLSNFGEGLSWIRQPPGKGLEWLAHIYWDDDKRYNPSLKSRLTISKDTSRNQVVLTMTNMDPVDTATYYCARRETVFYWYFDVWGQGTTVTVSSASTKGPSVFPEAPSSKSTSGGTAALGCLVKDYFPEPVTVSWNSGALTSGVHTFPAVLQSSGLYSLGSVVTVPSSSLGTQTYICNVNHKPSNTKVDKKVEPKSCDKTHTCPPCPAPEAAGAPSVFLFPPKPKDTLMISRTPEVTCVVVDVSHEDPEVKFNWYVDGVEVHNAKTKPREEQYNSTYRVVSVLTVLHQDWLNGKEYKCKVSNKALPAPIEKTISKAKGQPREPQVYTLPPCREEMTKNQVSLSCAVKGFYPSDIAVEWESNGQPENNYKTTPPVLDSDGSFFLVSKLTVDKSRWQQGNVFSCSVMHEALHNHYTQKSLSLSPGK
light 1: DIQMTQSPSSLSASVGDRVTITCKASESVDHFGWSLVHWYQQKPGKAPKLLIYRASNLESGVPSRFSGSGSGTDFTLTISSLQPEDFATYYCQQSNEDPWTFGGGTKVEIKRTVAAPSVFIFPPSDEQLKSGTASVSCLLNNFYPREAKVQWKVDNALQSGNSQESVTEQDSKDSTYSLDSTLTLSKADYEKHKVYACEVTHQGLSSPVTKSFNRGEC
light 2: DIQMTQSPSSLSASVGDRVTITCKASQSVDEDGDSYMNWYQQKPGKAPKLLIYAASNLESGVPSRFSGSGSGTDFTLTISSLQPEDFATYYCQQSNEDPPTFGGGTKVEIKRTVAAPSVFIFPPSDEQLKSGTASVSCLLNNFYPREAKVQWKVDNALQSGNSQESVTEQDSKDSTYSLKSTLTLSKADYEKHKVYACEVTHQGLSSPVTKSFNRGEC
chain 2: not shown
Turning to B1, the “a-hIL-4 bioassay IC50, pM)” value with human IL-4 was 5.11 pM. The “a-hIL-13 bioassay (IC50, pM)” value with human IL-13 is 15.6 pM.

B2: IL413TSLP-0250 (other)
heavy: EVTLRESGPALVKPTQTLTLTCTFSGFSLSNFGEGLSWIRQPPGKGLEWLAHIYWDDDKRYNPSLKSRLTISKDTSRNQVVLTMTNMDPVDTATYYCARRETVFYWYFDVWGQGTTVTVSSASTKGPSVFPEAPSSKSTSGGTAALGCLVKDYFPEPVTVSWNSGALTSGVHTFPAVLQSSGLYSLGSVVTVPSSSLGTQTYICNVNHKPSNTKVDKKVEPKSCDKTHTCPPCPAPEAAGAPSVFLFPPKPKDTLMISRTPEVTCVVVDVSHEDPEVKFNWYVDGVEVHNAKTKPREEQYNSTYRVVSVLTVLHQDWLNGKEYKCKVSNKALPAPIEKTISKAKGQPREPQVYTLPPCREEMTKNQVSLSCAVKGFYPSDIAVEWESNGQPENNYKTTPPVLDSDGSFFLVSKLTVDKSRWQQGNVFSCSVMHEALHNHYTQKSLSLSPGK
chain 1: SYVLTQPPSVSVAPGQTARITCGGNNLGSKSVHWYQQKPGQAPVLVVYDDSDRPSWIPERFSGSNSGNTATLTISRGEAGDEADYYCQVWDSSSDHVVFGGGTKLTVLGQPKAAPSVTLFPPSSEELQANKATLVCLISDFYPGAVTVAWKADSSPVKAGVETTTPSKQSNNKYAASSYLSLTPEQWKSHRSYSCQVTHEGSTVEKTVAPTECSGGGGSEVQLVESGGGLVQPGGSLRLSCAASGFTFSSYAMSWVRQAPGKGLEWVASISSGDTTYYPDSVKGRFTISRDNAKNSLYLQMNSLRAEDTAVYYCARNEGYYFGLTLWGQGTLVTVSSASTKGPSVFPKAPSSKSTSGGTAALGCLVKDYFPEPVTVSWNSGALTSGVHTFPAVLQSSGLYSLSSSVTVPSSSLGTQTYICNVNHKPSNTKVDKKVEPKSCDKTHTCPPCPAPEAAGAPSVFLFPPKPKDTLMISRTPEVTCVVVDVSHEDPEVKFNWYVDGVEVHNAKTKPREEQYNSTYRVVSVLTVLHQDWLNGKEYKCKVSNKALPAPIEKTISKAKGQPREPQVCTLPPSREEMTKNQVSLWCLVKGFYPSDIAVEWESNGQPENNYKTTPPVLDSDGSFFLYSKLTVDKSRWQQGNVFSCSVMHEALHNHYTQKSLSLSPGK
light 1: DIQMTQSPSSLSASVGDRVTITCKASQSVDEDGDSYMNWYQQKPGKAPKLLIYAASNLESGVPSRFSGSGSGTDFTLTISSLQPEDFATYYCQQSNEDPPTFGGGTKVEIKRTVAAPSVFIFPPSDEQLKSGTASVSCLLNNFYPREAKVQWKVDNALQSGNSQESVTEQDSKDSTYSLKSTLTLSKADYEKHKVYACEVTHQGLSSPVTKSFNRGEC
light 2: DIQMTQSPSSLSASVGDRVTITCKASESVDHFGWSLVHWYQQKPGKAPKLLIYRASNLESGVPSRFSGSGSGTDFTLTISSLQPEDFATYYCQQSNEDPWTFGGGTKVEIKRTVAAPSVFIFPPSDEQLKSGTASVSCLLNNFYPREAKVQWKVDNALQSGNSQESVTEQDSKDSTYSLDSTLTLSKADYEKHKVYACEVTHQGLSSPVTKSFNRGEC
chain 2: not shown
For B2, in the experiment with human IL-4, the “a-hIL-4 bioassay IC50, pM)” value came to 3.68 pM. The “a-hIL-13 bioassay (IC50, pM)” value with human IL-13 came to 102 pM.

B3: IL13433-0006 (other)
heavy: EVQLVESGGGLVQPGGSLRLSCAASGFTFSSYAMSWVRQAPGKGLEWVASISSGDTTYYPDSVKGRFTISRDNAKNSLYLQMNSLRAEDTAVYYCARNEGYYFGLTLWGQGTLVTVSSASTKGPSVFPKAPSSKSTSGGTAALGCLVKDYFPEPVTVSWNSGALTSGVHTFPAVLQSSGLYSLSSSVTVPSSSLGTQTYICNVNHKPSNTKVDKKVEPKSCDKTHTCPPCPAPEAAGAPSVFLFPPKPKDTLMISRTPEVTCVVVDVSHEDPEVKFNWYVDGVEVHNAKTKPREEQYNSTYRVVSVLTVLHQDWLNGKEYKCKVSNKALPAPIEKTISKAKGQPREPQVCTLPPSREEMTKNQVSLWCLVKGFYPSDIAVEWESNGQPENNYKTTPPVLDSDGSFFLYSKLTVDKSRWQQGNVFSCSVMHEALHNHYTQKSLSLSPGK
chain 1: DIQMTQSPSSLSASVGDRVTITCKASQNINKHLDWYQQKPGKAPKLLIYFTNNLQTGVPSRFSGSGSGTDFTLTISSLQPEDFATYYCFQYNQGWTFGGGTKVEIKRTVAAPSVFIFPPSDEQLKSGTASVVCLLNNFYPREAKVQWKVDNALQSGNSQESVTEQDSKDSTYSLSSTLTLSKADYEKHKVYACEVTHQGLSSPVTKSFNRGECGGGGSEVTLRESGPALVKPTQTLTLTCTFSGFSLSNFGEGLSWIRQPPGKGLEWLAHIYWDDDKRYNPSLKSRLTISKDTSRNQVVLTMTNMDPVDTATYYCARRETVFYWYFDVWGQGTTVTVSSASTKGPSVFPEAPSSKSTSGGTAALGCLVKDYFPEPVTVSWNSGALTSGVHTFPAVLQSSGLYSLGSVVTVPSSSLGTQTYICNVNHKPSNTKVDKKVEPKSCDKTHTCPPCPAPEAAGAPSVFLFPPKPKDTLMISRTPEVTCVVVDVSHEDPEVKFNWYVDGVEVHNAKTKPREEQYNSTYRVVSVLTVLHQDWLNGKEYKCKVSNKALPAPIEKTISKAKGQPREPQVYTLPPCREEMTKNQVSLSCAVKGFYPSDIAVEWESNGQPENNYKTTPPVLDSDGSFFLVSKLTVDKSRWQQGNVFSCSVMHEALHNHYTQKSLSLSPGK
light 1: DIQMTQSPSSLSASVGDRVTITCKASESVDHFGWSLVHWYQQKPGKAPKLLIYRASNLESGVPSRFSGSGSGTDFTLTISSLQPEDFATYYCQQSNEDPWTFGGGTKVEIKRTVAAPSVFIFPPSDEQLKSGTASVSCLLNNFYPREAKVQWKVDNALQSGNSQESVTEQDSKDSTYSLDSTLTLSKADYEKHKVYACEVTHQGLSSPVTKSFNRGEC
light 2: DIQMTQSPSSLSASVGDRVTITCKASQSVDEDGDSYMNWYQQKPGKAPKLLIYAASNLESGVPSRFSGSGSGTDFTLTISSLQPEDFATYYCQQSNEDPPTFGGGTKVEIKRTVAAPSVFIFPPSDEQLKSGTASVSCLLNNFYPREAKVQWKVDNALQSGNSQESVTEQDSKDSTYSLKSTLTLSKADYEKHKVYACEVTHQGLSSPVTKSFNRGEC
chain 2: EVQLVESGGGLVQPGGSLRLSCAASGFTFSSYWMYWVRQAPGKGLEWVAAITPNAGEDYYPESVKGRFTISRDNAKNSLYLQMNSLRAEDTAVYYCARGHYYYTSYSLGYWGQGTLVTVSSASTKGPSVFPLAPSSKSTSGGTAALGCLVKDYFPEPVTVSWNSGALTSGVHTFPAVLQSSGLYSLSSVVTVPSSSLGTQTYICNVNHKPSNTKVDKKVEPKSC
As for B3, the “IL-4 Induced CD23 Expression, potency of cytokine neutralization” value with recombinant human IL-4 stood at 0.0103 nM. Besides, the “IL-13 Induced CD23 Expression, potency of cytokine neutralization” value with recombinant human IL-13 turned out to be 0.00901 nM. In the experiment with recombinant human IL-33, the “IL-33 WT Activation of SEAP Reporter Cells, potency of cytokine neutralization” value was 0.112 nM.

B4: IL13-0001 (antibody, human IgG1, kappa, V domains shown)
VH: EVQLVESGGGLVQPGGSLRLSCAASGFTFSSYAMSWVRQAPGKGLEWVASISSGDTTYYPDSVKGRFTISRDNAKNSLYLQMNSLRAEDTAVYYCARNEGYYFGLTLWGQGTLVTVSS
VL: DIQMTQSPSSLSASVGDRVTITCKASESVDHFGWSLVHWYQQKPGKAPKLLIYRASNLESGVPSRFSGSGSGTDFTLTISSLQPEDFATYYCQQSNEDPWTFGGGTKVEIKR
With B4, the “a-hIL-13 bioassay (IC50, pM)” value with human IL-13 is 5.79 pM.
